From IntAct's records for PubMed 19197237

Target: pex14_human PEX14 (UniProt O75381)
UniProt O75381, sequence (O75381 whole entry): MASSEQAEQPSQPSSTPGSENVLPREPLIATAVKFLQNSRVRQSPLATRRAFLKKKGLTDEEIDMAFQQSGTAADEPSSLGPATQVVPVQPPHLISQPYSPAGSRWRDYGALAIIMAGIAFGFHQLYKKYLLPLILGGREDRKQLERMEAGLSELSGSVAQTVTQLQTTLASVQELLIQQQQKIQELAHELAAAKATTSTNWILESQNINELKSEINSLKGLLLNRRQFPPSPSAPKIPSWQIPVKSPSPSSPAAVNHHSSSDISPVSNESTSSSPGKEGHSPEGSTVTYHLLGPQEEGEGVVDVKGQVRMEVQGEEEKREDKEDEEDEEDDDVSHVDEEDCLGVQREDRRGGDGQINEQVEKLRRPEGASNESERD

Substance: Peroxisomal targeting signal 1 receptor (Homo sapiens) (from UniProt P50542) E121D
- effect of a mutation on the interaction: disrupting interaction
